Laboratory results: doi:10.1101/313767 (bioRxiv, 2018)

How the values were obtained:
[1] = molecular target: T1, TRIB1(84–343), the pseudokinase part of the crystallised fusion (human, UniProt Q96RU8 84-343); assay: crystal structure
T1 sequence: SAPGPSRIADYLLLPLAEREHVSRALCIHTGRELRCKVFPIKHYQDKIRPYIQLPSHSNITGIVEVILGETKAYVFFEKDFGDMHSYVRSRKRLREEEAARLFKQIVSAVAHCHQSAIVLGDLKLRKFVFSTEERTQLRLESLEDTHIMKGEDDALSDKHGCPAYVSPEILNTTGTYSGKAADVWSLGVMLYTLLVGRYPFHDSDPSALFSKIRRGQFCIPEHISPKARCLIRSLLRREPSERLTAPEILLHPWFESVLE

[2] = molecular target: T2, TRIB1(84–372) (human, UniProt Q96RU8 84-372); assay: ITC
T2 sequence: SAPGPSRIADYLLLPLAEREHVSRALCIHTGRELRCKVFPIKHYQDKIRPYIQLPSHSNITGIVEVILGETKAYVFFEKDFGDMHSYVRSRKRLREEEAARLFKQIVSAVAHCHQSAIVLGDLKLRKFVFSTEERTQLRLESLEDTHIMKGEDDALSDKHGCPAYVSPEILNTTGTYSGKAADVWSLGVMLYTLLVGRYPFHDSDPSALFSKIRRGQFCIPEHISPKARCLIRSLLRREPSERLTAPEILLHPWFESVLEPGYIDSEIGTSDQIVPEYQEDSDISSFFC

[3] = molecular target: T3, WT GST-TRIB1(84–372) (human, UniProt Q96RU8 84-372); assay: pull-down
T3 sequence: T2 sequence

[4] = molecular target: T2, TRIB1(84–372); assay: differential scanning fluorimetry

Row | Binder | binding result [2] | also measured
1 | GGICEHETSIDISAYIDPAAFND [C/EBPα(53–75), the degron part of the crystallised fusion] | – | binding result [1]: binds
2 | PAMYDDESAIDFSAYIDSMAAVP [C/EBPδ(50–72) fused to maltose-binding protein] | binds | –
3 | GGICEHETSIDISAYIDPAAFND [His6MBP-C/EBPα(53–75)] | binds | binding result [3]: binds
4 | GGICEHETSIDISAYIDPAAFND [C/EBPα peptide (53–75)] | – | binding result [4]: binds
5 | GDMCEHEASIDLSAYIESGEEQL [C/EBPε(31–53) fused to maltose-binding protein] | binds | –
